± gives the standard deviation of the averaged measurements.
Assay: total protein half-life in vivo (active degradation + dilution); higher = more stable protein
[1] = E. coli NCM3722 delta-clpP delta-lon delta-hslV, growth: N-lim chemostat, doubling time 6 h
[2] = E. coli NCM3722 delta-clpP, growth: N-lim chemostat, doubling time 6 h
[3] = E. coli NCM3722 delta-hslV, growth: N-lim chemostat, doubling time 6 h
[4] = E. coli NCM3722 delta-lon, growth: N-lim chemostat, doubling time 6 h
[5] = E. coli NCM3722 delta-smpB, growth: N-lim chemostat, doubling time 6 h
[6] = wild type E. coli NCM3722, growth: C-lim chemostat, doubling time 3 h
[7] = wild type E. coli NCM3722, growth: C-lim chemostat, doubling time 6 h
[8] = wild type E. coli NCM3722, growth: C-lim chemostat, doubling time 12 h
[9] = wild type E. coli NCM3722, growth: N-lim chemostat, doubling time 6 h
[10] = wild type E. coli NCM3722, growth: N-lim chemostat, doubling time 12 h
[11] = wild type E. coli NCM3722, growth: P-lim chemostat, doubling time 6 h
[12] = wild type E. coli NCM3722, growth: P-lim chemostat, doubling time 12 h

Sequence | total protein half-life in vivo [1] [h] | total protein half-life in vivo [2] [h] | total protein half-life in vivo [3] [h] | total protein half-life in vivo [4] [h] | total protein half-life in vivo [5] [h] | total protein half-life in vivo [6] [h] | total protein half-life in vivo [7] [h] | total protein half-life in vivo [8] [h] | total protein half-life in vivo [9] [h] | total protein half-life in vivo [10] [h] | total protein half-life in vivo [11] [h] | total protein half-life in vivo [12] [h]
MQFSKMHGLGNDFMVVDAVTQNVFFSPELIRRLADRHLGVGFDQLLVVEPPYDPELDFHYRIFNADGSEVAQCGNGARCFARFVRLKGLTNKRDIRVSTANGRMVLTVTDDDLVRVNMGEPNFEPSAVPFRANKAEKTYIMRAAEQTILCGVVSMGNPHCVIQVDDVDTAAVETLGPVLESHERFPERANIGFMQVVKREHIRLRVYERGAGETQACGSGACAAVAVGIQQGLLAEEVRVELPGGRLDIAWKGPGHPLYMTGPAVHVYDGFIHL [P0A6K1] | 6.36 ± 1.1 | 6.48 ± 2.1 | 5.87 ± 0.47 | 5.47 ± 0.1 | 5.32 ± 0.55 | 3.44 ± 0.073 | 5.92 ± 0.45 | 9.56 ± 0.77 | 5.53 ± 0.74 | 9.83 ± 0.98 | 5.42 ± 0.38 | 11.859 ± 0.004
MRIGIPRERLTNETRVAATPKTVEQLLKLGFTVAVESGAGQLASFDDKAFVQAGAEIVEGNSVWQSEIILKVNAPLDDEIALLNPGTTLVSFIWPAQNPELMQKLAERNVTVMAMDSVPRISRAQSLDALSSMANIAGYRAIVEAAHEFGRFFTGQITAAGKVPPAKVMVIGAGVAGLAAIGAANSLGAIVRAFDTRPEVKEQVQSMGAEFLELDFKEEAGSGDGYAKVMSDAFIKAEMELFAAQAKEVDIIVTTALIPGKPAPKLITREMVDSMKAGSVIVDLAAQNGGNCEYTVPGEIFTTENGVKVIGYTDLPGRLPTQSSQLYGTNLVNLLKLLCKEKDGNITVDFDDVVIRGVTVIRAGEITWPAPPIQVSAQPQAAQKAAPEVKTEEKCTCSPWRKYALMALAIILFGWMASVAPKEFLGHFTVFALACVVGYYVVWNVSHALHTPLMSVTNAISGIIVVGALLQIGQGGWVSFLSFIAVLIASINIFGGFTVTQRMLKMFRKN | 6.21 ± 0.11 | 6.81 ± 0.17 | 6.66 ± 0.067 | 6.58 ± 0.37 | 6.01 ± 0.82 |  |  | 14.5 ± 0.55 | 6.23 ± 0.47 | 12.6 ± 0.42 | 6.73 ± 0.34 | 11.6 ± 1.5
MALLDFFLSRKKNTANIAKERLQIIVAERRRSDAEPHYLPQLRKDILEVICKYVQIDPEMVTVQLEQKDGDISILELNVTLPEAEELK [P0A734] | 5.76 ± 0.51 | 4.57 ± 0.13 |  | 3.791 ± 0.018 | 4.06 ± 0.14 | 2.736 ± 0.016 | 4.59 ± 0.27 | 6.36 ± 0.066 | 3.626 ± 0.022 | 6.22 ± 0.13 | 4.14 ± 1.5 | 8.17 ± 0.36
MTIWVDADACPNVIKEILYRAAERMQMPLVLVANQSLRVPPSRFIRTLRVAAGFDVADNEIVRQCEAGDLVITADIPLAAEAIEKGAAALNPRGERYTPATIRERLTMRDFMDTLRASGIQTGGPDSLSQRDRQAFAAELEKWWLEVQRSRG [P0A8D3] | 3.56 ± 0.87 | 3.08 | 3.2 ± 0.18 | 3.89 ± 0.53 | 3.16 ± 0.032 | 2.73 ± 0.094 | 4.33 ± 0.21 | 8.06 ± 2.6 | 3.55 ± 0.43 | 4.5 ± 0.6 | 5.28 ± 0.43 | 9.109 ± 0.034
MNKTTEYIDAMPIAASEKAALPKTDIRAVHQALDAEHRTWAREDDSPQGSVKARLEQAWPDSLADGQLIKDDEGRDQLKAMPEAKRSSMFPDPWRTNPVGRFWDRLRGRDVTPRYLARLTKEEQESEQKWRTVGTIRRYILLILTLAQTVVATWYMKTILPYQGWALINPMDMVGQDLWVSFMQLLPYMLQTGILILFAVLFCWVSAGFWTALMGFLQLLIGRDKYSISASTVGDEPLNPEHRTALIMPICNEDVNRVFAGLRATWESVKATGNAKHFDVYILSDSYNPDICVAEQKAWMELIAEVGGEGQIFYRRRRRRVKRKSGNIDDFCRRWGSQYSYMVVLDADSVMTGDCLCGLVRLMEANPNAGIIQSSPKASGMDTLYARCQQFATRVYGPLFTAGLHFWQLGESHYWGHNAIIRVKPFIEHCALAPLPGEGSFAGSILSHDFVEAALMRRAGWGVWIAYDLPGSYEELPPNLLDELKRDRRWCHGNLMNFRLFLVKGMHPVHRAVFLTGVMSYLSAPLWFMFLALSTALQVVHALTEPQYFLQPRQLFPVWPQWRPELAIALFASTMVLLFLPKLLSILLIWCKGTKEYGGFWRVTLSLLLEVLFSVLLAPVRMLFHTVFVVSAFLGWEVVWNSPQRDDDSTSWGEAFKRHGSQLLLGLVWAVGMAWLDLRFLFWLAPIVFSLILSPFVSVISSRATVGLRTKRWKLFLIPEEYSPPQVLVDTDRFLEMNRQRSLDDGFMHAVFNPSFNALATAMATARHRASKVLEIARDRHVEQALNETPEKLNRDRRLVLLSDPVTMARLHFRVWNSPERYSSWVSYYEGIKLNPLALRKPDAASQ | 6.7 ± 0.34 | 6.54 ± 0.33 | 6.46 ± 0.79 | 6.41 ± 0.39 | 5.99 ± 0.24 | 3.26 ± 0.39 | 6.45 ± 0.66 |  | 6.22 ± 0.42 | 13.4 ± 0.32 | 6.3 ± 0.32 | 13.3 ± 1.8
MKYDLIIIGSGSVGAAAGYYATRAGLNVLMTDAHMPPHQHGSHHGDTRLIRHAYGEGEKYVPLVLRAQTLWDELSRHNEEDPIFVRSGVINLGPADSTFLANVAHSAEQWQLNVEKLDAQGIMARWPEIRVPDNYIGLFETDSGFLRSELAIKTWIQLAKEAGCAQLFNCPVTAIRHDDDGVTIETADGEYQAKKAIVCAGTWVKDLLPELPVQPVRKVFAWYQADGRYSVKNKFPAFTGELPNGDQYYGFPAENDALKIGKHNGGQVIHSADERVPFAEVASDGSEAFPFLRNVLPGIGCCLYGAACTYDNSPDEDFIIDTLPGHDNTLLITGLSGHGFKFASVLGEIAADFAQDKKSDFDLTPFRLSRFQ | 4.35 ± 1.2 | 3.046 ± 0.022 | 3.23 ± 0.11 | 3.34 ± 0.26 | 3.1 ± 0.046 | 2.99 ± 0.11 | 5.49 ± 0.24 | 6.92 ± 1.5 | 3.11 ± 0.23 | 5.46 ± 0.065 | 5.55 ± 0.089 | 10.5 ± 0.16

From the supplement of paper PMC11246515
